± gives the standard deviation of the averaged measurements.
B1: library; a variant is named by its letters at N, in order (parent)
chain: GCUGUCACCGGUGUAUUACCCUAGUGGUCGACCGGUCUGAUGAGUCUNNNNNNAGACGAAACAGC

Columns and labels:
hypoxanthine [1] = variants of: B1; assay: FACS-Seq fitted mean relative fluorescence mCherry/BFP without ligand (log10 relative fluorescence); ligand: hypoxanthine (xanthine aptamer); higher = higher reporter protein expression; settings: HEK293T, ligand present: no
Summary of the method: (§1)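 The ribozyme switch sat in an mCherry reporter, delivered by lentivirus into HEK293T libraries along with an EF1α-BFP marker. Enriched cells were incubated 48 h with or without ligand, sorted into 6 bins by mCherry/BFP, and bin genomic DNA was PCR-amplified, barcoded and MiSeq-sequenced. Fluorescence equals the fitted normal mean of the bin counts after normalization. Those log10(mCherry/BFP) means were scaled to five spiked-in control ribozymes.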

hypoxanthine [2] = variants of: B1; assay: normalized RNA/DNA level with ligand (relative to sTRSVctl = 100) (log10 (% of sTRSVctl)); ligand: hypoxanthine (xanthine aptamer); higher = less ribozyme self-cleavage, higher mRNA level; settings: ligand concentration (+) RNA-Seq: 5 mM, HEK293T, reporter: mCherry (pCS4076), ligand present: yes
Summary of the method: (§2)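 Only sequences with at least 100 DNA reads were analyzed, from HEK293T cells transfected with 4 µg per 6-well well of ribozyme switch library plasmids 72 h before RNA extraction with EDTA. Any ligand was added 1 h before transfection. RNA level was defined as RNA over DNA reads, normalized to a spiked-in non-cleaving sequence or to the top sequences, then scaled and log-transformed. The top set was 25 sequences, and the scaling was ×100 followed by log10.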

hypoxanthine [3] = variants of: B1; assay: normalized RNA/DNA level without ligand (relative to sTRSVctl = 100) (log10 (% of sTRSVctl)); ligand: hypoxanthine (xanthine aptamer); higher = less ribozyme self-cleavage, higher mRNA level; settings: HEK293T, reporter: mCherry (pCS4076), ligand present: no
Summary of the method: as §2

hypoxanthine [4] = variants of: B1; assay: FACS-Seq fitted mean relative fluorescence mCherry/BFP with ligand (log10 relative fluorescence); ligand: hypoxanthine (xanthine aptamer); ligand concentration (+) FACS-Seq: 5 mM; higher = higher reporter protein expression; settings: HEK293T, ligand present: yes
Summary of the method: as §1

| Variant | FACS-Seq fitted mean (log10) (hypoxanthine [1]) | normalized RNA/DNA level with ligand (log10) (hypoxanthine [2]) | normalized RNA/DNA level without ligand (log10) (hypoxanthine [3]) | FACS-Seq fitted mean (log10) (hypoxanthine [4]) |
| --- | --- | --- | --- | --- |
| GCUGUCACCGGUGUAUUACCCUAGUGGUCGACCGGUCUGAUGAGUCUUAUAAGAGACGAAACAGC [UAUAAG] | 0.0362 ± 0.033 | 1.87 ± 0.034 | 1.611 ± 0.015 | 0.291 ± 0.019 |
| GCUGUCACCGGUGUAUUACCCUAGUGGUCGACCGGUCUGAUGAGUCUCAUAAAAGACGAAACAGC [CAUAAA] | 0.609 ± 0.07 | 1.89 ± 0.038 | 1.735 ± 0.01 | 0.597 ± 0.038 |
| GCUGUCACCGGUGUAUUACCCUAGUGGUCGACCGGUCUGAUGAGUCUCAUAAUAGACGAAACAGC [CAUAAU] | 0.515 ± 0.078 | 1.88 ± 0.059 | 1.793 ± 0.011 | 0.559 ± 0.061 |
| GCUGUCACCGGUGUAUUACCCUAGUGGUCGACCGGUCUGAUGAGUCUGAGUUUAGACGAAACAGC [GAGUUU] | 0.34 ± 0.066 | 1.92 ± 0.058 | 1.83 ± 0.026 | 0.348 ± 0.13 |
| GCUGUCACCGGUGUAUUACCCUAGUGGUCGACCGGUCUGAUGAGUCUGAUAAGAGACGAAACAGC [GAUAAG] | -0.0234 ± 0.075 | 1.81 ± 0.027 | 1.36 ± 0.025 | 0.43 ± 0.02 |
| GCUGUCACCGGUGUAUUACCCUAGUGGUCGACCGGUCUGAUGAGUCUGAUAAAAGACGAAACAGC [GAUAAA] | 0.6 ± 0.041 | 1.919 ± 0.009 | 1.764 ± 0.0024 | 0.621 ± 0.12 |
| GCUGUCACCGGUGUAUUACCCUAGUGGUCGACCGGUCUGAUGAGUCUGAUAAUAGACGAAACAGC [GAUAAU] | -0.0227 ± 0.0069 | 1.909 ± 0.0021 | 1.78 ± 0.026 | 0.133 ± 0.006 |
| GCUGUCACCGGUGUAUUACCCUAGUGGUCGACCGGUCUGAUGAGUCUAAGUUUAGACGAAACAGC [AAGUUU] | -0.231 ± 0.049 | 1.898 ± 0.012 | 1.87 ± 0.023 | -0.254 ± 0.013 |
| GCUGUCACCGGUGUAUUACCCUAGUGGUCGACCGGUCUGAUGAGUCUAAUAAGAGACGAAACAGC [AAUAAG] | 0.306 ± 0.0098 | 1.83 ± 0.024 | 1.473 ± 0.005 | 0.638 ± 0.04 |
| GCUGUCACCGGUGUAUUACCCUAGUGGUCGACCGGUCUGAUGAGUCUAAUAAAAGACGAAACAGC [AAUAAA] | 0.416 ± 0.064 | 1.872 ± 0.014 | 1.756 ± 0.011 | 0.252 ± 0.092 |
| GCUGUCACCGGUGUAUUACCCUAGUGGUCGACCGGUCUGAUGAGUCUAAUAAUAGACGAAACAGC [AAUAAU] | 0.172 ± 0.059 | 1.89 ± 0.022 | 1.75 ± 0.021 | 0.376 ± 0.046 |
